Laboratory results reported in paper PMC12872393 (Life Science Alliance, 2026).
No end group written: not given here. AF488 = AF Dye 488 fluorescent label

How the values were obtained:
[1] = biological target: T1, His6-GATE16 (UniProt P60520 1-117); experiment: fluorescence polarisation; direct anisotropy: 10 nM labeled ATG4B peptide with increasing His6-GATE16; 20 mM Tris, 150 mM NaCl, pH 7.5; RT; apparent KD; settings: both partners purified
T1 construct: GATE16, LC3/GABARAP-family protein; also called monomeric His6-GATE16; His6-tagged GATE16; source: E. coli BL21 Tuner DE3, purified (Ni-NTA, SEC)
T1 sequence (P60520 whole entry): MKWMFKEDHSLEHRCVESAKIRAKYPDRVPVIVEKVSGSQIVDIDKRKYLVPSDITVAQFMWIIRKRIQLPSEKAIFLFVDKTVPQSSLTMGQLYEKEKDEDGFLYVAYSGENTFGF

[2] = biological target: T2, monomeric GATE16 (mGATE16) (UniProt P60520 1-117); experiment: fluorescence polarisation; competition anisotropy: 1.5 μM mGATE16 with 10 nM labeled ATG4B peptide; increasing unlabeled peptide; 20 mM Tris, 150 mM NaCl, pH 7.5; RT; settings: both partners purified
T2 construct: GATE16, LC3/GABARAP-family protein, from pGex-4T-2_GATE-16 after thrombin cleavage; source: E. coli BL21 Tuner DE3, purified as GST-GATE16, GST removed with thrombin, SEC
T2 sequence (P60520 whole entry): as above

B1: dye-labeled ATG4B LIR peptide (EDEDFEILSL) (peptide)
peptide: AF488-EDEDFEILSL
notes: also called fluorescently labeled ATG4B peptide; labeled ATG4B peptide; source: synthetic peptide (MIT Biopolymers Laboratory, HPLC-purified)
[1]
  binding result: binds
[2]
  binding result: binds
